# Paper PMC6965176, “Targeting Forward and Reverse EphB4/EFNB2 Signaling by a Peptide with Dual Functions” (Scientific Reports, 2020)
# Non-standard residues stand in square brackets, D forms with d. No end group written: not given here.
# How the values were obtained:
# EphB4 = biological target: T1, EphB4 (Homo sapiens, UniProt P54760); assay: SPR (BIACore) binding of peptides to immobilized EphB4; conditions: rhEphB4-coated chips, 0.16-20 nM equivalent BIDEN-AP, duplicate, visual inspection; poor fitting to 1:1 or 1:2 models (Fig. 3B)
# T1 construct: purchased R&D Systems
# T1 sequence (P54760 16-987): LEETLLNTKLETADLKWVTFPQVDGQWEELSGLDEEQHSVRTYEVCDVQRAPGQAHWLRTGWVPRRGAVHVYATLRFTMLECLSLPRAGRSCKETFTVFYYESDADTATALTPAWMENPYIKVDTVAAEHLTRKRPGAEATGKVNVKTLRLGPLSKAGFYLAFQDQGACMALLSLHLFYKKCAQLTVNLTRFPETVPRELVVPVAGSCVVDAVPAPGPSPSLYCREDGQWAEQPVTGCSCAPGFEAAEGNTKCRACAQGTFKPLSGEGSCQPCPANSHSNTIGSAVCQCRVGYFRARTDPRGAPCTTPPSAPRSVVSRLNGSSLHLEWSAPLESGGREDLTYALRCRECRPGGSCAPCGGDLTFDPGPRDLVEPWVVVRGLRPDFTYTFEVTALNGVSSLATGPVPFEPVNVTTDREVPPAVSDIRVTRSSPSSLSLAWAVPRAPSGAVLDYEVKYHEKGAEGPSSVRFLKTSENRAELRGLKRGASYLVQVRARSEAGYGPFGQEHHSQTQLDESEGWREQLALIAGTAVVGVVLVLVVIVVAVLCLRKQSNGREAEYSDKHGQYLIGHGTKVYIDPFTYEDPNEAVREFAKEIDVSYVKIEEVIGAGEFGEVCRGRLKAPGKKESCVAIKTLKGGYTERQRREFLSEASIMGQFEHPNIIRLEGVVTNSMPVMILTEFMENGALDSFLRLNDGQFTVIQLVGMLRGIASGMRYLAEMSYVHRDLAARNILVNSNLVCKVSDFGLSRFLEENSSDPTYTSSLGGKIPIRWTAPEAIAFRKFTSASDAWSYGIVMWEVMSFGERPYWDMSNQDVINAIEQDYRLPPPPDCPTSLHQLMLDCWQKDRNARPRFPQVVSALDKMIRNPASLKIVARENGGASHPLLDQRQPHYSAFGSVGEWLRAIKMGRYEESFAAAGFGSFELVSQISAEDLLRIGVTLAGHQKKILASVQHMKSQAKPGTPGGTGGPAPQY
# Description: Surface plasmon resonance (SPR) binding and competition assays.
# Immunoblotting, immunoprecipitation, and co-immunoprecipitation.
# [1] = Transmission electron microscopy particle size; format: physicochemical; conditions: transmission electron microscopy (Fig. 3C)
# Method: examined with a JEM 1010 transmission electron microscope (JEOL USA, Inc., Peabody, MA) at an accelerating voltage of 80 kV. Digital images were obtained using the AMT Imaging System (Advanced Microscopy Techniques Corp., Danvers, MA).
# Surface plasmon resonance (SPR) binding and competition assays. A stock solution of EphB4 in PBS (100 µg/mL) was diluted to 25 µg/mL with 10 mM sodium acetate buffer (pH 4.5) and immobilized to CM5 sensor chips using the amine coupling reaction according to manufacturer-provided procedures (BIACore). Briefly, the surfaces of the chips in flow cells (FC)- 1 and FC-2 were activated by exposing chips to a mixture of 200 mM N-ethyl-N’- dimethylaminopropyl carbodiimide and 50 mM N-hydroxysuccinimide for 7 min. FC-1 was used as a reference surface and was directly deactivated by injecting 1 M ethanolamine at pH 8.5 for 7 min. […]
# Binding assays were performed in duplicate at 25°C in HBSEP running buffer. […] Thus, all analyzed samples, including a sample of the running buffer, were additionally injected onto an uncoated reference surface. The association rate (Kon) and dissociation rate (Koff) were calculated by fitting binding chromatogram data using the BIACore evaluation software with a 1:1 Langmuir binding model. […]
# RF24_Bev cells = assay: Cell death in bevacizumab-resistant RF24 cells (SYTOX-green flow cytometry); format: cell-based; conditions: VEGF + Bev, SYTOX-negative live cells by flow cytometry (Fig. 4C,D)
# Method: Figure 4 BIDEN-AP–based agents inhibit tube formation and sensitize resistant endothelial cells to anti-VEGF antibody. (A,B) Tube formation by RF24 cells treated with EFNB2-Fc (2 nM) or BIDEN-AP (15 µM) compared to untreated controls (CTL). Representative data from three independent experiments are presented. (A) Representative microphotographs of tubes formed by RF24 cells are shown (n = 3). Images were taken at × 100 magnification. (B) Quantification of the number of nodes per field in three technical replicates. […] (C) Representative flow cytometry plots from three independent experiments of RF24_Bev cells are shown here. SYTOX-negative staining represents the live cell population.
# Given the important role of endothelium in adaptive changes with antiangiogenic therapy, we further tested the effects of BIDEN-AP in overcoming resistance to anti-VEGF therapy in RF24 endothelial cells. To do this, we first established a bevacizumab (Bev)-resistant RF24 cell line (RF24_Bev) selected though continuous Bev treatment at low dose ([…]) for 2 weeks. The RF24_Bev cells were maintained at a Bev concentration of […]. Using flow cytometry with SYTOX-green staining, we quantified the live (SYTOX-negative) vs. dead (SYTOX-positive) populations after treatment with BIDEN-AP or CCPM-BIDEN-AP.
substance,measurement,setting,value
CCPM-BIDEN-AP: nanoconjugate of BIDEN-AP with core-crosslinked polymeric micelles (CCPM) (TN[dY]LFSPNGPIARAW; also: conjugated to core-crosslinked polymeric micelles (CCPM)),binding avidity to immobilized EphB4 (SPR sensorgrams),EphB4,stronger binding avidity to EphB4 than the unconjugated BIDEN-AP peptide
same,mean diameter,[1],24 ± 3 nm
same,re-sensitization of bevacizumab-resistant endothelial cells to Bev,RF24_Bev cells,re-sensitized these cells to Bev treatment
